The source of these data is patent US9378557B2, “Microfluidic device for assessing object/test material interactions” (Dublin City University, priority 2008, dated 2016).

In the experiment the test system is platelets. In words: Shear-activated platelet translocation on von Willebrand Factor in the microfluidic device (blood perfusion assay, platelet tracking software). The format is cell-based. The note with it: whole blood treated with ReoPro 20 μg/ml for 20 minutes; vWF-coated test area; arterial shear rate 1500 s-1; compared to normal untreated platelets (FIG. 13). The text has this:
The microfluidic device was used to measure the shear-activated response of platelets in the presence of von Willebrand Factor (vWF). In particular, the effect of platelet specific GPIIb-IIIa antagonist (abciximab, ReoPro) on platelet function was examined. Abciximab (trade name ReoPro, distributed by Eli Lilly) is a platelet aggregation inhibitor used mainly during and after coronary artery procedures to prevent platelets from sticking together, by platelet GPIIb-IIIa-mediated aggregation, and subsequent thrombus formation.
Blood Draw: Blood was obtained from volunteers by venopuncture using a 19-g needle attached to a polypropylene syringe containing anticoagulant solution. […]
Matrix deposition on microfluidic device: The components of the flow cells were assembled using a jig to ensure patterned psa layers are aligned. […] Using silastic laboratory tubing, von Willebrand Factor solution (˜100 ug/ml protein solution in Phosphate Buffered Saline solution (PBS) was injected to fill the flow cell. The platform was then left to sit for 2 hours to immobilise the vWF on the glass base. (The flow cells were blocked with 1% BSA solution (in PBS) for 1 hour at room temperature). Deposition of von Willebrand Factor was by coating through adsorption. The platforms were rinsed with PBS solution and were then ready for perfusion assays. […]

B1: abciximab (antibody, chains of the INN, looked up, V domains shown)
VH: EVQLQQSGTVLARPGASVKMSCEASGYTFTNYWMHWVKQRPGQGLEWIGAIYPGNSDTSYIQKFKGKAKLTAVTSTTSVYMELSSLTNEDSAVYYCTLYDGYYVFAYWGQGTLVTVSA
VL: EIVLTQSPVTLSVTPGDSVSLSCRASRDISNNLHWFQQTSHESPRLLIKYASQSMSGIPSRFSGSGSGTDFTLSINSVETEDFGMYFCQQTNSWPYTFGGGTKLEIK
modifications: Fab
notes: platelet specific GPIIb-IIIa antagonist
Turning to B1, the average velocity entry is listed as “increased” and the escape percentage entry was “increased”.
